Test results: publication PMC4231741

Target: MspJI wild type (modification-dependent restriction endonuclease)
Experiment: crystal structure

MspJI wild type (modification-dependent restriction endonuclease) (enzyme)
stoichiometry N: 4
